Literature values in patent US20250304973A1, “HIGH-AFFINITY THROMBIN APTAMERS AND METHODS OF USE” (Ayass Bioscience LLC, priority 2024, published 2025).

Details: reversal of dabigatran

B1: Idarucizumab: a monoclonal antibody that binds to dabigatran and neutralizes its anticoagulant properties (antibody, chains of the INN, looked up, V domains shown)
VH: QVQLQESGPGLVKPSETLSLTCTVSGFSLTSYIVDWIRQPPGKGLEWIGVIWAGGSTGYNSALRSRVSITKDTSKNQFSLKLSSVTAADTAVYYCASAAYYSYYNYDGFAYWGQGTLVTVSS
VL: DVVMTQSPLSLPVTLGQPASISCKSSQSLLYTDGKTYLYWFLQRPGQSPRRLIYLVSKLDSGVPDRFSGSGSGTDFTLKISRVEAEDVGVYYCLQSTHFPHTFGGGTKVEIK
modifications: Fab
time to reversal of anticoagulant effect: this in ~2-4 hours
